{"source": "paper PMC11369174", "about": "“Proteome-scale characterisation of motif-based interactome rewiring by disease mutations” (Molecular Systems Biology, 2024)", "molecules": {"B1": {"name": "O60832 (protein, UniProt O60832 1-514, looked up)", "chain": "MADAEVIILPKKHKKKKERKSLPEEDVAEIQHAEEFLIKPESKVAKLDTSQWPLLLKNFDKLNVRTTHYTPLACGSNPLKREIGDYIRTGFINLDKPSNPSSHEVVAWIRRILRVEKTGHSGTLDPKVTGCLIVCIERATRLVKSQQSAGKEYVGIVRLHNAIEGGTQLSRALETLTGALFQRPPLIAAVKRQLRVRTIYESKMIEYDPERRLGIFWVSCEAGTYIRTLCVHLGLLLGVGGQMQELRRVRSGVMSEKDHMVTMHDVLDAQWLYDNHKDESYLRRVVYPLEKLLTSHKRLVMKDSAVNAICYGAKIMLPGVLRYEDGIEVNQEIVVITTKGEAICMAIALMTTAVISTCDHGIVAKIKRVIMERDTYPRKWGLGPKASQKKLMIKQGLLDKHGKPTDSTPATWKQEYVDYSESAKKEVVAEVVKAPQVVAEAAKTAKRKRESESESDETPPAAPQLIKKEKKKSKKDKKAKAGLESGAEPGDGDSDTTKKKKKKKKAKEVELVSE", "modifications": "full-length"}, "B2": {"name": "ESPN (protein, UniProt B1AK53 1-854, looked up)", "Espin": "MALEQALQAARQGELDVLRSLHAAGLLGPSLRDPLDALPVHHAARAGKLHCLRFLVEEAALPAAARARNGATPAHDASATGHLACLQWLLSQGGCRVQDKDNSGATVLHLAARFGHPEVVNWLLHHGGGDPTAATDMGALPIHYAAAKGDFPSLRLLVEHYPEGVNAQTKNGATPLYLACQEGHLEVTQYLVQECGADPHARAHDGMTPLHAAAQMGHSPVIVWLVSCTDVSLSEQDKDGATAMHFAASRGHTKVLSWLLLHGGEISADLWGGTPLHDAAENGELECCQILVVNGAELDVRDRDGYTAADLSDFNGHSHCTRYLRTVENLSVEHRVLSRDPSAELEAKQPDSGMSSPNTTVSVQPLNFDLSSPTSTLSNYDSCSSSHSSIKGQHPPCGLSSARAADIQSYMDMLNPELGLPRGTIGKPTPPPPPPSFPPPPPPPGTQLPPPPPGYPAPKPPVGPQAADIYMQTKNKLRHVETEALKKELSSCDGHDGLRRQDSSRKPRAFSKQPSTGDYYRQLGRCPGETLAARPGMAHSEEVRARQPARAGCPRLGPAARGSLEGPSAPPQAALLPGNHVPNGCAADPKASRELPPPPPPPPPPLPEAASSPPPAPPLPLESAGPGCGQRRSSSSTGSTKSFNMMSPTGDNSELLAEIKAGKSLKPTPQSKGLTTVFSGIGQPAFQPDSPLPSVSPALSPVRSPTPPAAGFQPLLNGSLVPVPPTTPAPGVQLDVEALIPTHDEQGRPIPEWKRQVMVRKMQLKMQEEEEQRRKEEEEEARLASMPAWRRDLLRKKLEEEREQKRKEEERQKQEELRREKEQSEKLRTLGYDESKLAPWQRQVILKKGDIAKY"}, "B3": {"name": "FANCG (protein, UniProt O15287 1-622, looked up)", "Fanconi anemia group G protein": "MSRQTTSVGSSCLDLWREKNDRLVRQAKVAQNSGLTLRRQQLAQDALEGLRGLLHSLQGLPAAVPVLPLELTVTCNFIILRASLAQGFTEDQAQDIQRSLERVLETQEQQGPRLEQGLRELWDSVLRASCLLPELLSALHRLVGLQAALWLSADRLGDLALLLETLNGSQSGASKDLLLLLKTWSPPAEELDAPLTLQDAQGLKDVLLTAFAYRQGLQELITGNPDKALSSLHEAASGLCPRPVLVQVYTALGSCHRKMGNPQRALLYLVAALKEGSAWGPPLLEASRLYQQLGDTTAELESLELLVEALNVPCSSKAPQFLIEVELLLPPPDLASPLHCGTQSQTKHILASRCLQTGRAGDAAEHYLDLLALLLDSSEPRFSPPPSPPGPCMPEVFLEAAVALIQAGRAQDALTLCEELLSRTSSLLPKMSRLWEDARKGTKELPYCPLWVSATHLLQGQAWVQLGAQKVAISEFSRCLELLFRATPEEKEQGAAFNCEQGCKSDAALQQLRAAALISRGLEWVASGQDTKALQDFLLSVQMCPGNRDTYFHLLQTLKRLDRRDEATALWWRLEAQTKGSHEDALWSLPLYLESYLSWIRPSDRDAFLEEFRTSLPKSCDL"}, "B4": {"name": "O60934 (protein, UniProt O60934 1-754, looked up)", "chain": "MWKLLPAAGPAGGEPYRLLTGVEYVVGRKNCAILIENDQSISRNHAVLTANFSVTNLSQTDEIPVLTLKDNSKYGTFVNEEKMQNGFSRTLKSGDGITFGVFGSKFRIEYEPLVACSSCLDVSGKTALNQAILQLGGFTVNNWTEECTHLVMVSVKVTIKTICALICGRPIVKPEYFTEFLKAVESKKQPPQIESFYPPLDEPSIGSKNVDLSGRQERKQIFKGKTFIFLNAKQHKKLSSAVVFGGGEARLITEENEEEHNFFLAPGTCVVDTGITNSQTLIPDCQKKWIQSIMDMLQRQGLRPIPEAEIGLAVIFMTTKNYCDPQGHPSTGLKTTTPGPSLSQGVSVDEKLMPSAPVNTTTYVADTESEQADTWDLSERPKEIKVSKMEQKFRMLSQDAPTVKESCKTSSNNNSMVSNTLAKMRIPNYQLSPTKLPSINKSKDRASQQQQTNSIRNYFQPSTKKRERDEENQEMSSCKSARIETSCSLLEQTQPATPSLWKNKEQHLSENEPVDTNSDNNLFTDTDLKSIVKNSASKSHAAEKLRSNKKREMDDVAIEDEVLEQLFKDTKPELEIDVKVQKQEEDVNVRKRPRMDIETNDTFSDEAVPESSKISQENEIGKKRELKEDSLWSAKEISNNDKLQDDSEMLPKKLLLTEFRSLVIKNSTSRNPSGINDDYGQLKNFKKFKKVTYPGAGKLPHIIGGSDLIAHHARKNTELEEWLRQEMEVQNQHAKEESLADDLFRYNPYLKRRR", "modifications": "full-length"}}, "key": {"[1]": {"system": "KPNA4 ARM", "assay": "GenVar_HD2 ProP-PD phage selection, KPNA4 ARM", "format": "binding, human", "details": "bait-prey protein level, bait_accession O00629"}, "[2]": {"target": "ABL1 SH3 (Homo sapiens, UniProt P00519)", "sequence (P00519 60-121)": "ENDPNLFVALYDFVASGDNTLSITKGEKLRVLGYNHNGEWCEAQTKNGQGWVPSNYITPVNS", "assay": "GenVar_HD2 ProP-PD phage selection, ABL1 SH3", "format": "binding", "details": "bait domain-prey protein level, bait ABL1_SH3__P00519_60_121"}}}
{"molecule": "B1", "values": [{"measurement": "max_promiscuity", "setting": "[1]", "value": 3}, {"measurement": "max_specificity", "setting": "[1]", "value": 1}]}
{"molecule": "B2", "values": [{"measurement": "max_promiscuity", "setting": "[2]", "value": 2}, {"measurement": "max_specificity", "setting": "[2]", "value": 0.8421}]}
{"molecule": "B3", "values": [{"measurement": "max_promiscuity", "setting": "[2]", "value": 5}, {"measurement": "max_specificity", "setting": "[2]", "value": 1}]}
{"molecule": "B4", "values": [{"measurement": "max_promiscuity", "setting": "[1]", "value": 1}, {"measurement": "max_specificity", "setting": "[1]", "value": 1}]}
